In patent publication US20140141019A1 one finds IC50 data, which are given here for 1 substance.

The test addresses HER3 receptor on cells (HER3-transfected NIH 3T3 fibroblasts; SKBR3 cells; BxPC3 cells) (human) (UniProt P21860). The test can be described thus: flow cytometry competition on SKBR3 cells; HRG varied against anti-HER3 antibody (H4B-121, control antibody D) at its 50% maximal binding concentration.

What is called IC50 is the concentration needed to halve the response being measured. Low values mean inhibition by little substance, high ones a need for much substance. In turn, “heregulin (from UniProt Q02297 177-241) (ligand)” gave an IC50 of 2.5 nM.
